Measurements published in US20060008875A1 (UNIVERSITAIR MEDISCH CENTRUM ROTTERDAM, published 2006).

Biological target: T1, replication/repair factor RPA1 (human, UniProt P27694 1-616)
T1 construct: Endogenous protein in extracts of human TTD-A fibroblasts
Assay: anti-HA immunoprecipitation from extracts of TTD-A fibroblasts expressing p8-HA, immunoblot
From the text: We cloned the human TFB5 cDNA from primary fibroblasts by virtue of its homology with yeast TFB5 using conventional techniques known in the art. An HA-tagged version of hTFB5 (p8-HA) was constructed via conventional molecular cloning methods (Maniatis et al, supra) and expressed in TTD-A fibroblasts and subsequently used for immuno-precipitations with anti-HA (FIG. 1a). Both the XPB core TFIIH and the associated CAK component (CDK7) were co-precipitated with p8-HA, in contrast to replication/repair factor RPA1 (data not shown). Conversely, anti-p44 (another core-TFIIH component) co-precipitated p8-HA. We conclude that, analogous to yeast, this small polypeptide is associated with TFIIH in mammalian cells.
Immunoprecipitation and immunoblot analysis. Whole cell extracts from MRC5SV, TTD1BRSV and TTD1BRSV+hTFB5HA were prepared by isolating cells from 6 petri dishes per cell line (13 cm). Collected cell-pellets were washed once in PBS prior to lysis by douncing (20 strokes using a 12.61 mm dounce homogenizer, Bellco Glass, INC., USA) in 2 ml of buffer A (50 mM Tris pH 7.9; 150 mM NaCl; 20% Glycerol; 0.1% NP40; 5 mM β-mercaptoethanol) supplemented with anti-proteases. […]

T1 sequence (P27694 whole entry): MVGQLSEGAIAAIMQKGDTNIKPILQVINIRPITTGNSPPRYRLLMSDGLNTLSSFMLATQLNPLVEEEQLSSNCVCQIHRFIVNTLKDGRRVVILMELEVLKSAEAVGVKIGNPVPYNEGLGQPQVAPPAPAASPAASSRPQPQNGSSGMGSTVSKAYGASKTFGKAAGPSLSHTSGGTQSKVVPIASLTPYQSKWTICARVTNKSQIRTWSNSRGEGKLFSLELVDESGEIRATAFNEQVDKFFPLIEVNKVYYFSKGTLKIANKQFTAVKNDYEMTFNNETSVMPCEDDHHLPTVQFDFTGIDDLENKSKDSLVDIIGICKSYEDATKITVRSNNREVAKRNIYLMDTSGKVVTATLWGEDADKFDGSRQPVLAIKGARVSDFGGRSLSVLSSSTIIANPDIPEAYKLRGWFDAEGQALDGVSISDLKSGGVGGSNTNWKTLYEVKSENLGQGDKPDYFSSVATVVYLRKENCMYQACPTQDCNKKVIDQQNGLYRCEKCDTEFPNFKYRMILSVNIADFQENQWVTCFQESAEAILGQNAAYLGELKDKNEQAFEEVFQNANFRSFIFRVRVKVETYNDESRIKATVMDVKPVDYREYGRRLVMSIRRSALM

B1: HA-tagged version of hTFB5 (p8-HA) (other)
chain: MVNVLKGVLIECDPAMKQFLLYLDESNALGKKFIIQDIDDTHVFVIAELVNVLQERVGELMDQNAFSLTQK
notes: C-terminally HA-tagged TTDA cloned in pCDNA3 and expressed in TTD1BRSV (TTD-A) fibroblasts; tested in whole cell extracts; also called TTDA-HA; hTFB5HA; not shown: C-terminal HA tag
- binding result: no binding
